# From patent publication US20200087400A1 (EUREKA THERAPEUTICS, published 2020)
# Substitutions are numbered along the chain they refer to.
# B1: PSA146/HLA-A*02:01-specific scFv phage clone #15 (scFv, V domains shown)
# VH: QVQLVQSGAEVKKPGSSVKVSCKASGGTFSSYAISWVRQAPGQGLEWMGRIIPILGIANYAQKFQGRVTITADKSTSTAYMELSSLRSEDTAVYYCARVSQPVYGSSTYDIWGQGTLVTVSS
# VL: QAVLTQPPSASGTPGQRVTISCSGRSSNLGSNSVNWYQQVPGTAPKLLIFDNHQRPSGVPDRFSGSKSGTSASLAISGLRSEDETDYYCAAWDDSLNSVVFGGGTKLTVLG
# B2: PSA146/HLA-A*02:01-specific scFv phage clone #14 (scFv, V domains shown)
# VH: EVQLVQSGAEVKKPGASVKVSCKASGYTFTGYFMHWVRQAPGQGLEWMGGFDPEDGETIYAQKFQGRVTMTEDTSTDTAYMELSSLRSEDTAVYYCARYSYDLWGQGTLVTVSS
# VL: QTVVTQEPSLTVSPGGTVTLTCASSTGAVTSGYYPNWFQQKPGQAPRALIYSTSNKHSWTPARFSGSLLGGKAALTLSGVQPEDEAEYYCLLYYGGAQWVFGGGTKLTVLG
# B3: PSA146/HLA-A*02:01-specific scFv phage clone #17 (scFv, V domains shown)
# VH: QMQLVQSGAEVKKPGESLKISCKGSGYSFTSYWIGWVRQMPGKGLEWMGIIYPGDSDTRYSPSFQGQVTISADKSISTAYLQWSSLKASDTAMYYCARLVVPDAFDIWGQGTMVTVSS
# VL: QSVVTQPPSVSAAPGQKVTISCSGSSSNIGNNYVSWYQQLPGTAPKLLIYDNYKRPSGIPDRFSGSKSGTSATLGITGLQTGDEADYYCGTWDSSLSAGVFGGGTKLTVLG
# B4: PSA146/HLA-A*02:01-specific scFv phage clone #18 (scFv, V domains shown)
# VH: QVQLVQSGAEVKKPGESLKISCKGSGYSFTSYWIGWVRQMPGKGLEWMGIIYPGDSDTRYSPSFQGQVTISADKSISTAYLQWSSLKASDTAMYYCARWGSRGFLDAFDIWGQGTMVTVSS
# VL: B3 VL with K17R, T43A, K46R, Y53D, A98S
# Target: T1, control peptide A2E-6/HLA-A*02:01 complex on T2 cells (member of the P19 mixture) (human)
# T1 construct: Loaded on T2 cells as part of the mixture of 19 control peptides
# Experiment: flow cytometry, phage on T2 cells
# Protocol: (§1) Individual phage clones from enriched phage display panning pools against PSA146/HLA-A*02:01 complex were incubated in the coated plates. Binding of the phage clones was detected by HRP-conjugated anti-M13 antibodies and developed using HRP substrate. The absorbance was read at 450 nm. […] Then, unique antibody clones were identified through DNA sequencing of ELISA-positive clones. […] T2 cells loaded with different peptides and β2M were first stained with purified scFv phage clones, followed by staining with a mouse anti-M13 mAb, and finally R-PE conjugated horse anti-mouse IgG from Vector Labs. Each step of the staining was performed for between 30-60 minutes on ice and the cells were washed twice between stainings. All 16 clones recognized PSA146-loaded T2 cells specifically. FIG. 3 provides examples of PSA146/HLA-A*02:01 specific phage clone binding to peptide-loaded T2 cells through FACS.
row,Binder,binding result
1,B1,no binding
2,B2,no binding
3,B3,no binding
4,B4,no binding

# Target: T2, control peptide A2E-8/HLA-A*02:01 complex on T2 cells (member of the P19 mixture) (human)
# T2 construct: Loaded on T2 cells as part of the mixture of 19 control peptides
# Experiment: flow cytometry, phage on T2 cells
# Protocol: as §1
row,Binder,binding result
1,B1,no binding
2,B2,no binding
3,B3,no binding
4,B4,no binding

# Target: T3, control peptide A2E-3/HLA-A*02:01 complex on T2 cells (member of the P19 mixture) (human)
# T3 construct: Loaded on T2 cells as part of the mixture of 19 control peptides
# Experiment: flow cytometry, phage on T2 cells
# Protocol: as §1
row,Binder,binding result
1,B1,no binding
2,B2,no binding
3,B3,no binding
4,B4,no binding

# Target: T4, control peptide A2E-19/HLA-A*02:01 complex on T2 cells (member of the P19 mixture) (human)
# T4 construct: Loaded on T2 cells as part of the mixture of 19 control peptides
# Experiment: flow cytometry, phage on T2 cells
# Protocol: as §1
row,Binder,binding result
1,B1,no binding
2,B2,no binding
3,B3,no binding
4,B4,no binding

# Target: T5, control peptide A2E-2/HLA-A*02:01 complex on T2 cells (member of the P19 mixture) (human)
# T5 construct: Loaded on T2 cells as part of the mixture of 19 control peptides
# Experiment: flow cytometry, phage on T2 cells
# Protocol: as §1
row,Binder,binding result
1,B1,no binding
2,B2,no binding
3,B3,no binding
4,B4,no binding

# Target: T6, control peptide A2E-23/HLA-A*02:01 complex on T2 cells (member of the P19 mixture) (human)
# T6 construct: Loaded on T2 cells as part of the mixture of 19 control peptides
# Experiment: flow cytometry, phage on T2 cells
# Protocol: as §1
row,Binder,binding result
1,B1,no binding
2,B2,no binding
3,B3,no binding
4,B4,no binding

# Target: T7, control peptide A2E-16/HLA-A*02:01 complex on T2 cells (member of the P19 mixture) (human)
# T7 construct: Loaded on T2 cells as part of the mixture of 19 control peptides
# Experiment: flow cytometry, phage on T2 cells
# Protocol: as §1
row,Binder,binding result
1,B1,no binding
2,B2,no binding
3,B3,no binding
4,B4,no binding

# Target: T8, control peptide A2E-11/HLA-A*02:01 complex on T2 cells (member of the P19 mixture) (human)
# T8 construct: Loaded on T2 cells as part of the mixture of 19 control peptides
# Experiment: flow cytometry, phage on T2 cells
# Protocol: as §1
row,Binder,binding result
1,B1,no binding
2,B2,no binding
3,B3,no binding
4,B4,no binding

# Target: T9, control peptide A2E-4/HLA-A*02:01 complex on T2 cells (member of the P19 mixture) (human)
# T9 construct: Loaded on T2 cells as part of the mixture of 19 control peptides
# Experiment: flow cytometry, phage on T2 cells
# Protocol: as §1
row,Binder,binding result
1,B1,no binding
2,B2,no binding
3,B3,no binding
4,B4,no binding

# Target: T10, control peptide A2E-17/HLA-A*02:01 complex on T2 cells (member of the P19 mixture) (human)
# T10 construct: Loaded on T2 cells as part of the mixture of 19 control peptides
# Experiment: flow cytometry, phage on T2 cells
# Protocol: as §1
row,Binder,binding result
1,B1,no binding
2,B2,no binding
3,B3,no binding
4,B4,no binding

# Target: T11, control peptide A2E-9/HLA-A*02:01 complex on T2 cells (member of the P19 mixture) (human)
# T11 construct: Loaded on T2 cells as part of the mixture of 19 control peptides
# Experiment: flow cytometry, phage on T2 cells
# Protocol: as §1
row,Binder,binding result
1,B1,no binding
2,B2,no binding
3,B3,no binding
4,B4,no binding

# Target: T12, control peptide A2E-14/HLA-A*02:01 complex on T2 cells (member of the P19 mixture) (human)
# T12 construct: Loaded on T2 cells as part of the mixture of 19 control peptides
# Experiment: flow cytometry, phage on T2 cells
# Protocol: as §1
row,Binder,binding result
1,B1,no binding
2,B2,no binding
3,B3,no binding
4,B4,no binding

# Target: T13, control peptide A2E-15/HLA-A*02:01 complex on T2 cells (member of the P19 mixture) (human)
# T13 construct: Loaded on T2 cells as part of the mixture of 19 control peptides
# Experiment: flow cytometry, phage on T2 cells
# Protocol: as §1
row,Binder,binding result
1,B1,no binding
2,B2,no binding
3,B3,no binding
4,B4,no binding

# Target: T14, control peptide A2E-10/HLA-A*02:01 complex on T2 cells (member of the P19 mixture) (human)
# T14 construct: Loaded on T2 cells as part of the mixture of 19 control peptides
# Experiment: flow cytometry, phage on T2 cells
# Protocol: as §1
row,Binder,binding result
1,B1,no binding
2,B2,no binding
3,B3,no binding
4,B4,no binding

# Target: T15, control peptide A2E-7/HLA-A*02:01 complex on T2 cells (member of the P19 mixture) (human)
# T15 construct: Loaded on T2 cells as part of the mixture of 19 control peptides
# Experiment: flow cytometry, phage on T2 cells
# Protocol: as §1
row,Binder,binding result
1,B1,no binding
2,B2,no binding
3,B3,no binding
4,B4,no binding

# Target: T16, control peptide A2E-21/HLA-A*02:01 complex on T2 cells (member of the P19 mixture) (human)
# T16 construct: Loaded on T2 cells as part of the mixture of 19 control peptides
# Experiment: flow cytometry, phage on T2 cells
# Protocol: as §1
row,Binder,binding result
1,B1,no binding
2,B2,no binding
3,B3,no binding
4,B4,no binding

# Target: T17, control peptide A2E-13/HLA-A*02:01 complex on T2 cells (member of the P19 mixture) (human)
# T17 construct: Loaded on T2 cells as part of the mixture of 19 control peptides
# Experiment: flow cytometry, phage on T2 cells
# Protocol: as §1
row,Binder,binding result
1,B1,no binding
2,B2,no binding
3,B3,no binding
4,B4,no binding

# Target: T18, control peptide A2E-1/HLA-A*02:01 complex on T2 cells (member of the P19 mixture) (human)
# T18 construct: Loaded on T2 cells as part of the mixture of 19 control peptides
# Experiment: flow cytometry, phage on T2 cells
# Protocol: as §1
row,Binder,binding result
1,B1,no binding
2,B2,no binding
3,B3,no binding
4,B4,no binding

# Target: T19, control peptide A2E-5/HLA-A*02:01 complex on T2 cells (member of the P19 mixture) (human)
# T19 construct: Loaded on T2 cells as part of the mixture of 19 control peptides
# Experiment: flow cytometry, phage on T2 cells
# Protocol: as §1
row,Binder,binding result
1,B1,no binding
2,B2,no binding
3,B3,no binding
4,B4,no binding

# Target: T20, Bio-P19 member A2E-6 (chain 2 carries a C-terminal BirA substrate peptide (BSP), enzymatically biotinylated; the BSP letters are not given in the patent and are left out)
# T20 construct: also called biotinylated control peptide A2E-6/HLA-A*02:01 monomer
# Experiment: phage ELISA, streptavidin plate, anti-M13-HRP
# Protocol: as §1
row,Binder,binding result
1,B1,no binding
2,B2,no binding
3,B3,no binding
4,B4,no binding

# Target: T21, Bio-P19 member A2E-14 (chain 2: C-terminal BirA substrate peptide (BSP), enzymatically biotinylated; its letters are not printed in the patent and it is left out)
# T21 construct: also called biotinylated control peptide A2E-14/HLA-A*02:01 monomer
# Experiment: phage ELISA, streptavidin plate, anti-M13-HRP
# Protocol: as §1
row,Binder,binding result
1,B1,no binding
2,B2,no binding
3,B3,no binding
4,B4,no binding

# Target: T22, Bio-P19 member A2E-13 (chain 2: C-terminal BirA substrate peptide (BSP), enzymatically biotinylated; its letters are not printed in the patent and it is left out)
# T22 construct: also called biotinylated control peptide A2E-13/HLA-A*02:01 monomer
# Experiment: phage ELISA, streptavidin plate, anti-M13-HRP
# Protocol: as §1
row,Binder,binding result
1,B1,no binding
2,B2,no binding
3,B3,no binding
4,B4,no binding

# Target: T23, HLA-A*02:01 on T2 cells with no peptide loaded (human)
# T23 construct: TAP-deficient T2 cells, no peptide loaded from outside; also called T2 cells without peptide loading
# Experiment: flow cytometry, phage on T2 cells, anti-M13 + R-PE anti-mouse IgG
# Protocol: as §1
row,Binder,binding result
1,B1,no binding
2,B2,no binding
3,B3,no binding
4,B4,no binding

# Target: T24, PSA 146-154 peptide/HLA-A*02:01 complex on the cell surface (human)
# T24 construct: also called PSA146/HLA-A*02:01; PSA146-loaded T2 cells
# Experiment: as above
# Protocol: as §1
row,Binder,binding result
1,B1,binds
2,B2,binds
3,B3,binds
4,B4,binds
